Twelve molecules from patent US6512097 can be followed below.

Experiment [1] deals with T1, c-erbB-2 ECD with a Ser-Gly-His6 C-terminal fusion (UniProt P04626 23-652).
T1 construct: extracellular domain; Expressed from CHO cells, IMAC purified; coupled to a CM5 chip, coated on plates, or biotinylated with NHS-LC-biotin; also called c-erbB-2 extracellular domain; biotinylated c-erbB-2 ECD
Briefly: SPR BIAcore. A general note: SPR reads the build-up and loss of mass on a sensor chip optically.

Experiment [2] concerns the target T1, c-erbB-2 ECD with a Ser-Gly-His6 …. Briefly: SPR BIAcore. This is another data set of the same source.

Where two headings read alike, the source gives them in different places.

B1: C6ML3-4 (scFv)
scFv: QVQLLQSGAELKKPGESLKISCKGSGYSFTSYWIAWVRQMPGKGLEYMGLIYPGDSDTKYSPSFQGQVTISVDKSVSTAYLQWSSLKPSDSAVYFCARHDVGYCSSSNCAKWPEYFQHWGQGTLVTVSSGGGGSGGGGSGGGGSQSVLTQPPSVSAAPGQKVTISCSGSSSNIGNNYVSWYQQLPGTAPKLLIYGHTNRPAGVPDRFSGSKSGTSASLAISGFRSEDEADYYCASWEYSLWGWVFGGGTKLTVLG
Consider B1, for which, in experiment [1], the dissociation constant Kd (commonly the concentration at which binding is half-saturated) turned out to be 3.5 nM and the koff (in general, a measure of how fast the partners let go of each other) was 0.0014 s⁻¹.

B2: C6ML3-19 (scFv)
scFv: QVQLLQSGAELKKPGESLKISCKGSGYSFTSYWIAWVRQMPGKGLEYMGLIYPGDSDTKYSPSFQGQVTISVDKSVSTAYLQWSSLKPSDSAVYFCARHDVGYCSSSNCAKWPEYFQHWGQGTLVTVSSGGGGSGGGGSGGGGSQSVLTQPPSVSAAPGQKVTISCSGSSSNIGNNYVSWYQQLPGTAPKLLIYGHTNRPAGVPDRFSGSKSGTSASLAISGFRSEDEADYYCASWDRPLWGWVFGGGTKLTVLG
As to B2, the Kd in experiment [1] and in experiment [2] was 1.5 nM each time. The koff in experiment [1] and in experiment [2] was 0.001 s⁻¹ each time.

B3: C6ML3-15 (scFv)
scFv: QVQLLQSGAELKKPGESLKISCKGSGYSFTSYWIAWVRQMPGKGLEYMGLIYPGDSDTKYSPSFQGQVTISVDKSVSTAYLQWSSLKPSDSAVYFCARHDVGYCSSSNCAKWPEYFQHWGQGTLVTVSSGGGGSGGGGSGGGGSQSVLTQPPSVSAAPGQKVTISCSGSSSNIGNNYVSWYQQLPGTAPKLLIYGHTNRPAGVPDRFSGSKSGTSASLAISGFRSEDEADYYCAAWDRPLWGWVFGGGTKLTVLG
notes: also called C6M13-15
Take B3: the Kd in experiment [1] and in experiment [2] was 2.2 nM in each case.

B4: C6ML3-12 (scFv)
scFv: QVQLLQSGAELKKPGESLKISCKGSGYSFTSYWIAWVRQMPGKGLEYMGLIYPGDSDTKYSPSFQGQVTISVDKSVSTAYLQWSSLKPSDSAVYFCARHDVGYCSSSNCAKWPEYFQHWGQGTLVTVSSGGGGSGGGGSGGGGSQSVLTQPPSVSAAPGQKVTISCSGSSSNIGNNYVSWYQQLPGTAPKLLIYGHTNRPAGVPDRFSGSKSGTSASLAISGFRSEDEADYYCAAWDYSRSGWVFGGGTKLTVLG
notes: also called CML-3-12
B4: in experiment [1], the dissociation constant (Kd) is 1.6 nM and the koff worked out at 0.00072 s⁻¹. In addition, in experiment [2], the Kd turned out to be 1.6 nM and the koff came to 0.00072 s⁻¹.

B5: C6ML3-5 (scFv)
scFv: QVQLLQSGAELKKPGESLKISCKGSGYSFTSYWIAWVRQMPGKGLEYMGLIYPGDSDTKYSPSFQGQVTISVDKSVSTAYLQWSSLKPSDSAVYFCARHDVGYCSSSNCAKWPEYFQHWGQGTLVTVSSGGGGSGGGGSGGGGSQSVLTQPPSVSAAPGQKVTISCSGSSSNIGNNYVSWYQQLPGTAPKLLIYGHTNRPAGVPDRFSGSKSGTSASLAISGFRSEDEADYYCAAWDYSLSGWVFGGGTKLTVLG
As for B5, the Kd in experiment [1] was found to be 3.2 nM; in experiment [2], 3.7 nM.

B6: C6ML3-6 (scFv)
scFv: QVQLLQSGAELKKPGESLKISCKGSGYSFTSYWIAWVRQMPGKGLEYMGLIYPGDSDTKYSPSFQGQVTISVDKSVSTAYLQWSSLKPSDSAVYFCARHDVGYCSSSNCAKWPEYFQHWGQGTLVTVSSGGGGSGGGGSGGGGSQSVLTQPPSVSAAPGQKVTISCSGSSSNIGNNYVSWYQQLPGTAPKLLIYGHTNRPAGVPDRFSGSKSGTSASLAISGFRSEDEADYYCASWDYSLSGWVFGGGTKLTVLG
With B6, in experiment [1], the affinity, expressed as Kd, was 3.2 nM and the koff amounted to 0.0019 s⁻¹. In experiment [2], this molecule showed a Kd of 3.2 nM and a koff of 0.0019 s⁻¹.

B7: C6ML3-13 (scFv)
scFv: QVQLLQSGAELKKPGESLKISCKGSGYSFTSYWIAWVRQMPGKGLEYMGLIYPGDSDTKYSPSFQGQVTISVDKSVSTAYLQWSSLKPSDSAVYFCARHDVGYCSSSNCAKWPEYFQHWGQGTLVTVSSGGGGSGGGGSGGGGSQSVLTQPPSVSAAPGQKVTISCSGSSSNIGNNYVSWYQQLPGTAPKLLIYGHTNRPAGVPDRFSGSKSGTSASLAISGFRSEDEADYYCAAWDATLWGWVFGGGTKLTVLG
For B7, in experiment [1], the Kd was determined as 2.4 nM and the koff was 0.0021 s⁻¹.

B8: C6ML3-11 (scFv)
scFv: QVQLLQSGAELKKPGESLKISCKGSGYSFTSYWIAWVRQMPGKGLEYMGLIYPGDSDTKYSPSFQGQVTISVDKSVSTAYLQWSSLKPSDSAVYFCARHDVGYCSSSNCAKWPEYFQHWGQGTLVTVSSGGGGSGGGGSGGGGSQSVLTQPPSVSAAPGQKVTISCSGSSSNIGNNYVSWYQQLPGTAPKLLIYGHTNRPAGVPDRFSGSKSGTSASLAISGFRSEDEADYYCAAWDYALWGWVFGGGTKLTVLG
In experiment [1], B8 yielded a Kd of 3.6 nM and a koff of 0.0022 s⁻¹.

B9: C6ML3-8 (scFv)
scFv: QVQLLQSGAELKKPGESLKISCKGSGYSFTSYWIAWVRQMPGKGLEYMGLIYPGDSDTKYSPSFQGQVTISVDKSVSTAYLQWSSLKPSDSAVYFCARHDVGYCSSSNCAKWPEYFQHWGQGTLVTVSSGGGGSGGGGSGGGGSQSVLTQPPSVSAAPGQKVTISCSGSSSNIGNNYVSWYQQLPGTAPKLLIYGHTNRPAGVPDRFSGSKSGTSASLAISGFRSEDEADYYCAAWDHLRWGWVFGGGTKLTVLG
In experiment [1], B9 displayed a Kd of 2.6 nM and a koff of 0.0017 s⁻¹.

B10: C6ML3-7 (scFv)
scFv: QVQLLQSGAELKKPGESLKISCKGSGYSFTSYWIAWVRQMPGKGLEYMGLIYPGDSDTKYSPSFQGQVTISVDKSVSTAYLQWSSLKPSDSAVYFCARHDVGYCSSSNCAKWPEYFQHWGQGTLVTVSSGGGGSGGGGSGGGGSQSVLTQPPSVSAAPGQKVTISCSGSSSNIGNNYVSWYQQLPGTAPKLLIYGHTNRPAGVPDRFSGSKSGTSASLAISGFRSEDEADYYCAAWDYAVSGWVFGGGTKLTVLG
With B10, the Kd in experiment [1] and in experiment [2] was 2.6 nM throughout. For the same molecule, the koff in experiment [1] and in experiment [2] was 0.0017 s⁻¹ throughout.

B11: C6ML3-23 (scFv)
scFv: QVQLLQSGAELKKPGESLKISCKGSGYSFTSYWIAWVRQMPGKGLEYMGLIYPGDSDTKYSPSFQGQVTISVDKSVSTAYLQWSSLKPSDSAVYFCARHDVGYCSSSNCAKWPEYFQHWGQGTLVTVSSGGGGSGGGGSGGGGSQSVLTQPPSVSAAPGQKVTISCSGSSSNIGNNYVSWYQQLPGTAPKLLIYGHTNRPAGVPDRFSGSKSGTSASLAISGFRSEDEADYYCASWDHSLWGWVFGGGTKLTVLG
In experiment [1], B11 gave a Kd of 1.5 nM and a koff of 0.0017 s⁻¹. Further, in experiment [2], binding was put at a Kd of 1.5 nM and the off-rate (koff) stood at 0.001 s⁻¹.

B12: C6ML3-14 (scFv)
scFv: QVQLLQSGAELKKPGESLKISCKGSGYSFTSYWIAWVRQMPGKGLEYMGLIYPGDSDTKYSPSFQGQVTISVDKSVSTAYLQWSSLKPSDSAVYFCARHDVGYCSSSNCAKWPEYFQHWGQGTLVTVSSGGGGSGGGGSGGGGSQSVLTQPPSVSAAPGQKVTISCSGSSSNIGNNYVSWYQQLPGTAPKLLIYGHTNRPAGVPDRFSGSKSGTSASLAISGFRSEDEADYYCAAWDDPLWGWVFGGGTKLTVLG
Consider B12, for which the Kd is 1 nM in experiment [1] and 1.1 nM in experiment [2]. In addition, the koff came out at 0.00077 s⁻¹ in experiment [1] and 0.00076 s⁻¹ in experiment [2].
